The values that follow come from patent US12091446.

Experiment [1] concerns the target SARS-COV-2 RBD Beta variant (SARS-CoV-2).
The target of experiment [2] is SARS-COV-2 RBD Gamma variant (SARS-CoV-2).
The target in experiment [3] is SARS-COV-2 RBD Lambda variant (SARS-CoV-2).
For experiment [4], the target named is SARS-COV-2 RBD Mu variant (SARS-CoV-2).

Sequence of huACE2-Fc (Q9BYF1 18-740): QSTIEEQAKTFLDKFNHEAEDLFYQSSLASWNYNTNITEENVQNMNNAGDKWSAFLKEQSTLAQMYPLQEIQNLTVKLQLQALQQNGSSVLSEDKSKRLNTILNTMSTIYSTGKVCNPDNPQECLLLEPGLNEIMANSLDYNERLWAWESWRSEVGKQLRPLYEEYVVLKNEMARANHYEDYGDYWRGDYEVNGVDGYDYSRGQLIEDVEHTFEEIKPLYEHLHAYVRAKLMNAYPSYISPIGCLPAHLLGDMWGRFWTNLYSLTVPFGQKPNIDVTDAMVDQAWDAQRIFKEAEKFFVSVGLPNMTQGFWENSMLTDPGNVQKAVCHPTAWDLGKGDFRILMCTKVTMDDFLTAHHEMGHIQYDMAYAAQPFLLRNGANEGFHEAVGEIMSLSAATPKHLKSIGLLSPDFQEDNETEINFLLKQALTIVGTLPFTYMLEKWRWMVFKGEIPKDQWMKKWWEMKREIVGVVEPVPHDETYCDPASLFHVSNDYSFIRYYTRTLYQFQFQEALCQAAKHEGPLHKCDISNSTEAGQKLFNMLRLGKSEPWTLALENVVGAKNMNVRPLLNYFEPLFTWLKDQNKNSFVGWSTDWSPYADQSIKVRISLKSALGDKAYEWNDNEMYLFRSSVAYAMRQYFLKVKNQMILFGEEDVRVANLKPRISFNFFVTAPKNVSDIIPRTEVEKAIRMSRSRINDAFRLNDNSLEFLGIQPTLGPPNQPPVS

For “huACE2-Fc (from UniProt Q9BYF1) (Fc fusion)”, the Kd (usually the equilibrium constant for the complex coming apart) in experiment [1] amounted to 44.4 nM; in experiment [2] it was 3.6 nM; in experiment [3] it was 5.34 nM; in experiment [4], 12.9 nM.
